Here are results for 94 variants from the supplement of paper PMC10567573.

B1: KRT18 (parent)
chain: KSQDLAKIMADIRAQYDELARKNR
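Note: lentivirally expressed fusions sorted by FACS into six bins by GFP to DsRed ratio, PSI derived from sequencing read proportions per bin multiplied by bin number.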

Variants of B1 are the subject of the data set. The data set can be described thus: protein stability index of a GFP-peptide fusion (GPS, HEK-293T) (PSI 1-6); higher = more stable. Conditions: c terminus: a fixed tail appended.
Consider KSQDLAKIMAAIRAQYDELARKNR [D11A], for which the protein stability index was 1.86. The figure for KSQDLAKIMATIRAQYDELARKNR [D11T] is 2.02; for KSQDLAKIMAPIRAQYDELARKNR [D11P] it is 3.56; for KSQDLAKIMAEIRAQYDELARKNR [D11E] it is 2.14.

For the variant KSQDLAKIMALIRAQYDELARKNR [D11L], the protein stability index came out at 1.52.

For the variant KSQDLAKIMAGIRAQYDELARKNR [D11G], the protein stability index was determined as 2.12. KSQDLAKIMAVIRAQYDELARKNR [D11V]: the protein stability index came out at 2.14. Consider KSQDLAKIMAFIRAQYDELARKNR [D11F], for which the protein stability index is 1.8. In the case of KSQDLAKIMADIRAQYDLLARKNR [E18L], the protein stability index came out at 2.38. Under KSQDLAKIMADIRAQYDNLARKNR [E18N] stands 2.62. Under KSQDLAKIMADIRAQYDTLARKNR [E18T] stands 2.35. Under KSQDLAKIMADIRAQYDWLARKNR [E18W] stands 1.96.

For the variant KSQDLAKIMADIRAQYDDLARKNR [E18D], the protein stability index was 2.16. The figure for KSQDLAKIMADIRAQYDQLARKNR [E18Q] is 2.68; for KSQDLAKIMADIRAQYDPLARKNR [E18P] it is 2.8; for KSQDLAKIMADIRAQYDELFRKNR [A20F] it is 2.69. On to KSQDLAKIMADIRAQYDELLRKNR [A20L], for which the protein stability index turned out to be 2.03. As for KSQDLAKIMADIRAQYDELNRKNR [A20N], the protein stability index stood at 2.93.

In the case of KSQDLAKIMADIRAQYDELHRKNR [A20H], the protein stability index stood at 3.12. The figure for KSQDLAKIMADIRAQYDELSRKNR [A20S] is 2.87. Turning to KSQDLAKIMADIRAQYDELMRKNR [A20M], the protein stability index worked out at 2.51. In the case of KSQDLAKIMADIRAQYDELVRKNR [A20V], the protein stability index was determined as 2.85. Under KSQDLAKIMADIRAQYDELGRKNR [A20G] stands 3.19. The figure for KSQDLAKIMADARAQYDELARKNR [I12A] is 4; for KSQDLAKIMADNRAQYDELARKNR [I12N] it is 4.26; for KSQDLAKIMADERAQYDELARKNR [I12E] it is 5.46. With KSQDLAKIMADYRAQYDELARKNR [I12Y], the protein stability index is 3.55. With KSQDLAKIMADHRAQYDELARKNR [I12H], the protein stability index was determined as 3.55. Under KSQDLAKIMADFRAQYDELARKNR [I12F] stands 3.03.

Take KSQDLAKIMADLRAQYDELARKNR [I12L]: the protein stability index turned out to be 2.65. The figure for KSQDLAKIMADMRAQYDELARKNR [I12M] is 4.04; for KSQDLAKIEADIRAQYDELARKNR [M9E] it is 4.63; for KSQDLAKICADIRAQYDELARKNR [M9C] it is 3.14. On to KSQDLAKIPADIRAQYDELARKNR [M9P], for which the protein stability index is 4.67. Take KSQDLAKIQADIRAQYDELARKNR [M9Q]: the protein stability index came to 3.64.

Regarding KSQDLAKIDADIRAQYDELARKNR [M9D], the protein stability index is 4.72. Take KSQDLAKISADIRAQYDELARKNR [M9S]: the protein stability index was 3.89. The figure for KSQDLAKIHADIRAQYDELARKNR [M9H] is 3.68; for KSQDLAKILADIRAQYDELARKNR [M9L] it is 2.23. For KSQDLAKIMADIRAQYPELARKNR [D17P], the protein stability index was 3.16.

In the case of KSQDLAKIMADIRAQYEELARKNR [D17E], the protein stability index came out at 1.85. Consider KSQDLAKIMADIRAQYKELARKNR [D17K], for which the protein stability index was determined as 2.87. The figure for KSQDLAKIMADIRAQYAELARKNR [D17A] is 2.54; for KSQDLAKIMADIRAQYWELARKNR [D17W] it is 1.92. With KSQDLAKIMADIRAQYIELARKNR [D17I], the protein stability index was determined as 2.01.

For the variant KSQDLAKIMADIRAQYYELARKNR [D17Y], the protein stability index was found to be 2.37. For KSQDLAKIMADIPAQYDELARKNR [R13P], the protein stability index amounted to 4.12. Under KSQDLAKIMADIVAQYDELARKNR [R13V] stands 2.42; under KSQDLAKIMADIWAQYDELARKNR [R13W], 2.79; under KSQDLAKIMADIFAQYDELARKNR [R13F], 1.93. Under KSQDLAKIMADITAQYDELARKNR [R13T] stands 2.78; under KSQDLAKIMADIIAQYDELARKNR [R13I], 1.92. The figure for KSQDLAKIMADIQAQYDELARKNR [R13Q] is 2.85; for KSQDLAKIMADIHAQYDELARKNR [R13H] it is 2.53. For the variant KSQCLAKIMADIRAQYDELARKNR [D4C], the protein stability index amounted to 1.64.

KSQLLAKIMADIRAQYDELARKNR [D4L]: the protein stability index amounted to 1.72.

With KSQELAKIMADIRAQYDELARKNR [D4E], the protein stability index stood at 2.5. Under KSQYLAKIMADIRAQYDELARKNR [D4Y] stands 1.88.

For the variant KSQWLAKIMADIRAQYDELARKNR [D4W], the protein stability index is 2.04. Under KSQQLAKIMADIRAQYDELARKNR [D4Q] stands 2.42; under KSQDLGKIMADIRAQYDELARKNR [A6G], 3.31. KSQDLSKIMADIRAQYDELARKNR [A6S]: the protein stability index is 3.04. Turning to KSQDLVKIMADIRAQYDELARKNR [A6V], the protein stability index is 2.29. Under KSQDLQKIMADIRAQYDELARKNR [A6Q] stands 3.14; under KSQDLYKIMADIRAQYDELARKNR [A6Y], 2.33.

Regarding KSQDLTKIMADIRAQYDELARKNR [A6T], the protein stability index turned out to be 2.94. The figure for ASQDLAKIMADIRAQYDELARKNR [K1A] is 2.58. For LSQDLAKIMADIRAQYDELARKNR [K1L], the protein stability index came out at 2.88. The figure for YSQDLAKIMADIRAQYDELARKNR [K1Y] is 2.2; for FSQDLAKIMADIRAQYDELARKNR [K1F] it is 3.1. Under SSQDLAKIMADIRAQYDELARKNR [K1S] stands 2.58; under QSQDLAKIMADIRAQYDELARKNR [K1Q], 2.9; under CSQDLAKIMADIRAQYDELARKNR [K1C], 2.51. KSQDSAKIMADIRAQYDELARKNR [L5S]: the protein stability index stood at 4.1. Under KSQDYAKIMADIRAQYDELARKNR [L5Y] stands 2.19; under KSQDMAKIMADIRAQYDELARKNR [L5M], 2.99; under KSQDDAKIMADIRAQYDELARKNR [L5D], 4.16. As to KSQDRAKIMADIRAQYDELARKNR [L5R], the protein stability index stood at 3.83. Turning to KSQDCAKIMADIRAQYDELARKNR [L5C], the protein stability index is 3.02. On to KSQDTAKIMADIRAQYDELARKNR [L5T], for which the protein stability index is 3.51. For KSNDLAKIMADIRAQYDELARKNR [Q3N], the protein stability index stood at 3.25. Consider KSADLAKIMADIRAQYDELARKNR [Q3A], for which the protein stability index was 2.31. The figure for KSMDLAKIMADIRAQYDELARKNR [Q3M] is 2.41; for KSYDLAKIMADIRAQYDELARKNR [Q3Y] it is 1.88.

Regarding KSFDLAKIMADIRAQYDELARKNR [Q3F], the protein stability index worked out at 2.46.

As for KSCDLAKIMADIRAQYDELARKNR [Q3C], the protein stability index was 2.02. As for KSVDLAKIMADIRAQYDELARKNR [Q3V], the protein stability index was 2.34.

With KSQDLAKIMDDIRAQYDELARKNR [A10D], the protein stability index amounted to 2.57. Regarding KSQDLAKIMTDIRAQYDELARKNR [A10T], the protein stability index was 3.02. The figure for KSQDLAKIMNDIRAQYDELARKNR [A10N] is 3.09; for KSQDLAKIMEDIRAQYDELARKNR [A10E] it is 3.18; for KSQDLAKIMIDIRAQYDELARKNR [A10I] it is 2.73. As for KSQDLAKIMCDIRAQYDELARKNR [A10C], the protein stability index worked out at 2.91. The figure for KSQDLAKIMSDIRAQYDELARKNR [A10S] is 2.84.
